{"source": "patent US20180344870A1", "about": "(AGENUS, published 2018)", "key": {"[1]": {"target": "T1, “4-aa mouse to human” CD137 protein (murine with a human segment, UniProt P20334 24-187)", "T1 construct": "also called “mouse to human” CD137 chimeric protein; not shown: Gly-Ser linker", "experiment": "SPR, BA001 captured by anti-human Fab, chimeric protein at 60 nM as analyte", "procedure": "(§1) The chimeric CD137 proteins described above were tested in a surface plasmon resonance (SPR) assay. Briefly, a CM5 sensor chip was first coated with an anti-human Fab antibody using the amine coupling kit. […] Sensorgrams were recorded during both the association and dissociation phases."}, "[2]": {"target": "T2, “4-aa human to mouse” CD137 protein (human with a murine segment, UniProt Q07011 24-186)", "T2 construct": "also called “human to mouse” CD137 chimeric protein; not shown: Gly-Ser linker", "experiment": "SPR, antibody captured by anti-human Fab, CD137 protein as analyte", "procedure": "as §1"}, "[3]": {"target": "T3, human-mouse fusion construct 5017 of CD137, on Jurkat cells (human with a murine segment, UniProt Q07011 24-255)", "T3 construct": "on Jurkat cells", "T3 chain": "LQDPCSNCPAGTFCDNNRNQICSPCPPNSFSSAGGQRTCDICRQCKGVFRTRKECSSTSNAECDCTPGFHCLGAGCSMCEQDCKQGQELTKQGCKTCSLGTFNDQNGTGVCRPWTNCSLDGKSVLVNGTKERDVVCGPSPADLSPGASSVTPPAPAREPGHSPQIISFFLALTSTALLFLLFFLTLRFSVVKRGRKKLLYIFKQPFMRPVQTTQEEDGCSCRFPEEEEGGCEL", "experiment": "flow cytometry on transfected Jurkat cells, serial dilutions of antibody", "procedure": "(§2) These engineered mutant cell lines were used to test whether anti-CD137 antibody can bind to particular switch mutants. Absence of binding would thereby indicate possible epitope locations. The cell binding assays were performed generally as described in Section 1.1. […] The cells were then washed and suspended in 80 μl of 2% paraformaldehyde (Electron Microscopy Sciences) prepared in PBS. Data were collected with BD FACS Canto and analyzed using BD FACSDiva software."}, "[4]": {"target": "T4, human-mouse fusion construct 5018 of CD137, on Jurkat cells (human with a murine segment, UniProt Q07011 24-255)", "T4 construct": "also called mutant 5018; murine switch mutant 5018", "T4 chain": "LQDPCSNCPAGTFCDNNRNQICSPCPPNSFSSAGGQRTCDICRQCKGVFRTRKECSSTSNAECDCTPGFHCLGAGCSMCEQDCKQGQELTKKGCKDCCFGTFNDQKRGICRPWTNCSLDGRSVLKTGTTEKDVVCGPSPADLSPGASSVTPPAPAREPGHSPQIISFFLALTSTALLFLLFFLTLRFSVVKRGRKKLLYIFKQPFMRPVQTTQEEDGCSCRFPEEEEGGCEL", "experiment": "flow cytometry on transfected Jurkat cells, anti-human IgG-PE detection", "procedure": "as §2"}, "[5]": {"target": "T5, human-mouse fusion construct 5015 of CD137, on Jurkat cells (human with a murine segment, UniProt Q07011 24-255)", "T5 construct": "also called mutant 5015; murine switch mutant 5015", "T5 chain": "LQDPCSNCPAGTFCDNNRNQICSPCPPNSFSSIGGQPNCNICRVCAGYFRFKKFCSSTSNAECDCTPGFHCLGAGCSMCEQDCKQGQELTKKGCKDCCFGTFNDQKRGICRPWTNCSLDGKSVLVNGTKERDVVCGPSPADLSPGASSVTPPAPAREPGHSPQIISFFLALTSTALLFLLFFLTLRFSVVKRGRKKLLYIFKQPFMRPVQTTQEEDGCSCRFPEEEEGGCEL", "experiment": "flow cytometry on transfected Jurkat cells, anti-human IgG-PE detection", "procedure": "as §2"}, "[6]": {"target": "T6, human-mouse fusion construct 5016 of CD137, on Jurkat cells (human with a murine segment, UniProt Q07011 24-255)", "T6 chain": "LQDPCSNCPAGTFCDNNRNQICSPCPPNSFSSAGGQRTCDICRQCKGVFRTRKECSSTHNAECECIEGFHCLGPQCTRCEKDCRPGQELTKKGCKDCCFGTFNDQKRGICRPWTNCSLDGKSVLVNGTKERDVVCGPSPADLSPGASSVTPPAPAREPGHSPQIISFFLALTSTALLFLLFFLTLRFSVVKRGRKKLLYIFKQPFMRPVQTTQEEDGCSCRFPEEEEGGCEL", "experiment": "flow cytometry on transfected Jurkat cells, anti-human IgG-PE detection", "procedure": "as §2"}, "[7]": {"target": "T7, human CD137 expressed on cells (human, UniProt Q07011 24-255)", "T7 construct": "also called 4-1BB; TNFRSF9", "experiment": "flow cytometry on engineered Jurkat cells, anti-human lambda-PE detection"}, "[8]": {"target": "T8, mouse-human fusion construct 5017 (extracellular domain, Gly-Ser linker, 6×His tag) (murine with a human segment, UniProt P20334 24-187)", "T8 construct": "not shown: Gly-Ser linker", "T8 chain (part 1 of 2)": "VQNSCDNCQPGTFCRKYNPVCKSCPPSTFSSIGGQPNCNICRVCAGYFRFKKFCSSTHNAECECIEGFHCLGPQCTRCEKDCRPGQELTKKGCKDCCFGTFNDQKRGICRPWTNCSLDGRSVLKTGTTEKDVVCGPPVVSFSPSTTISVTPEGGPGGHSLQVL", "T8 chain (part 2 of 2)": "HHHHHH", "experiment": "ELISA (DELFIA europium read-out), antigen coated at 5 µg/ml, IgG1 titrated", "procedure": "(§3) Specifically, 50 μl of 5 μg/ml of each antigen diluted in 1×PBS pH 7.4 (Gibco™, Cat no. 10010056) was added to each well in a Thermo Scientific™ Black 96-Well Immuno Plate (Thermofisher Scientific, Cat no. 437111) and incubated at 4° C. overnight. The plate was washed three times with PBS using the Biotek 405TS microplate washer with Biostack3 microplate stacker. The plate was blocked by incubating with 300 ul/well of 3% Milk Powder in PBS (Marvel dried skimmed milk powder) for 1 hour at room temperature, and were washed three times with 1×PBS. The antibodies titrated in 3% M-PBS (Milk Powder in 1×PBS) were added to the plate and incubated for 1 hour at room temperature. The plate was washed three times with 1×PBS with 0.1% Tween20 (Sigma Aldrich, Cat No. P1379) and three times with 1×PBS using the plate washer. 50 μl Biotin-SP (long spacer) AffiniPure Goat Anti-Human IgG, Fcγ Fragment Specific (Jackson Immuno Research, Code:109-065-098, Lot no. 123909) diluted at 1:2000 in 3% M-PBS was added to each well and incubated for 1 hour at room temperature. The plate was washed three times with 1×PBS with 0.1% Tween20 and three times with 1×PBS using the plate washer. For detection, 50 μl of DELFIA® Europium-labeled streptavidin (PerkinElmer, Part no. 1244-360, Lot no. 2195997) diluted in the DELFIA® Assay buffer (PerkinElmer, Part no. 4002-0010, Lot no. 646702) at 1:500 was added to each well and incubated for 1 hour at room temperature. The plate was washed three times with 1×PBS with 0.1% Tween20 and three times with PBS using the plate washer."}, "[9]": {"target": "T9, extracellular domain of human CD137 with Gly-Ser linker and 6×His tag (human, UniProt Q07011 24-186)", "T9 construct": "also called human CD137 (ELISA antigen); not shown: Gly-Ser linker", "experiment": "ELISA (DELFIA europium read-out), antigen coated at 5 µg/ml, IgG1 titrated", "procedure": "as §3"}, "[10]": {"target": "T10, mouse-human fusion construct 5015 (extracellular domain, Gly-Ser linker, 6×His tag) (murine with a human segment, UniProt P20334 24-187)", "T10 construct": "also called mCD137-human53-80; not shown: Gly-Ser linker", "T10 chain (part 1 of 2)": "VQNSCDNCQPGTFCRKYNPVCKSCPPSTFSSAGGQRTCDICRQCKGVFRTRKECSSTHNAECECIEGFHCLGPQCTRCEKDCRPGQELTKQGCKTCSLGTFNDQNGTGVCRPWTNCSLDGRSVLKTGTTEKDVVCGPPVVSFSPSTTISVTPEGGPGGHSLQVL", "T10 chain (part 2 of 2)": "HHHHHH", "experiment": "ELISA (DELFIA europium read-out), antigen coated at 5 µg/ml", "procedure": "as §3"}}}
{"binder": "BA001 (IgG1) (antibody, V domains shown, N-terminal X = glutamine (Q) or pyroglutamate (pE), Human IgG1 with lambda light chain; also called anti-CD137 antibody BA001) VH: not shown VL: SYVLTQPPSVSVAPGETARITCGGDDIGDKRVHWYQKKPDQAPVLVVYEDRYRPSGIPERISGSNSGNTATLTLSRVEAGDEADYYCQVWDSSSDHPGVFGGGTQLIILG", "values": [{"measurement": "binding result", "setting": "[1]", "result": "binds"}, {"measurement": "binding result", "setting": "[2]", "result": "no binding (tested: 60 nM)"}, {"measurement": "binding result", "setting": "[3]", "result": "no binding"}, {"measurement": "binding result", "setting": "[4]", "result": "binds"}, {"measurement": "binding result", "setting": "[5]", "result": "binds"}, {"measurement": "binding result", "setting": "[6]", "result": "binds"}, {"measurement": "binding result", "setting": "[7]", "result": "binds"}]}
{"binder": "BA049 (IgG1 format) (antibody, V domains shown, N-terminal X = glutamine (Q) or pyroglutamate (pE)) VH: not shown VL: SYVLTQPPSVSVAPGETARITCGGDDIGDKRVHWYQKKPDQAPVLVVYEDRYRPSGIPERISGSNSGNTATLTLSRVEAGDEADYYCQVWDSSSDHPGVFGGGTQLIILG", "values": [{"measurement": "binding result", "setting": "[8]", "result": "binds"}, {"measurement": "binding result", "setting": "[9]", "result": "binds"}, {"measurement": "binding result", "setting": "[10]", "result": "no binding"}]}
{"binder": "BA050 (IgG1 format) (antibody, V domains shown, N-terminal X = glutamine (Q) or pyroglutamate (pE)) VH: not shown VL: SYVLTQPPSVSVAPGETARITCGGDDIGDKRVHWYQKKPDQAPVLVVYEDRYRPSGIPERISGSNSGNTATLTLSRVEAGDEADYYCQVWNSSSDHPGVFGGGTQLIILG", "values": [{"measurement": "binding result", "setting": "[8]", "result": "binds"}, {"measurement": "binding result", "setting": "[9]", "result": "binds"}, {"measurement": "binding result", "setting": "[10]", "result": "no binding"}]}
{"binder": "BA051 (IgG1 format) (antibody, V domains shown, N-terminal X = glutamine (Q) or pyroglutamate (pE)) VH: not shown VL: SYVLTQPPSVSVAPGETARITCGGDDIGDKRVHWYQKKPDQAPVLVVYEDRYRPSGIPERISGSNSGNTATLTLSRVEAGDEADYYCQVWDSSSDYPGVFGGGTQLIILG", "values": [{"measurement": "binding result", "setting": "[8]", "result": "binds"}, {"measurement": "binding result", "setting": "[9]", "result": "binds"}, {"measurement": "binding result", "setting": "[10]", "result": "no binding"}]}
{"binder": "BA052 (IgG1 format) (antibody, V domains shown, N-terminal X = glutamine (Q) or pyroglutamate (pE)) VH: QVQLVQSGAEVKKPGASVKVSCKASGYNFSGYYMHWVRQAPGQGLEWMGWINPNSGGTNYAQKFQGRVTITRDTSISTAYMELSRLRSDDTAVYYCAREPGYYGSGLDYWGQGTLVTVSS VL: SYVLTQPPSVSVAPGETARITCGGDDIGDKRVHWYQKKPDQAPVLVVYEDRYRPSGIPERISGSNSGNTATLTLSRVEAGDEADYYCQVWYSSPDHPGVFGGGTQLIILG", "values": [{"measurement": "binding result", "setting": "[8]", "result": "binds"}, {"measurement": "binding result", "setting": "[9]", "result": "binds"}, {"measurement": "binding result", "setting": "[10]", "result": "no binding"}]}
